Data on 1 molecule can be found in US20220296727A1, “Immunoconjugate” (DendroCyte BioTech Pty Ltd, priority 2019, published 2022).

One assay relates to HEL. As to the kind of experiment: Cytotoxicity assay on HEL erythroleukemic cell line. It is filed as cell-based. As for the experimental part:
Kinetic analysis was performed as above.
DCR-2 and an isotype control mAb were conjugated to a PBD dimer toxin, to assess potential cytotoxicity. The cytotoxicity of DCR-2-PBD and the isotype-PBD were tested against CD300f+ and CD300f− cell lines and the results are shown in FIG. 6 and Table 2.

Assay [1] has as its system HSPC colony forming units. In words: Colony forming unit toxicity assay, cord blood HSPC. The class given is cell-based, human. As for the experimental part:
CFU colonies were plated at 2×10^4 cells/well in semi-solid methylcellulose medium (MethoCult Classic, Stemcell Technologies) in a 24 well plate (Corning, N.Y., USA), were cultured at 37° C. in 5% CO2 for 14 days and counted via microscopy. Whole cord blood PBMC was used. CD34^+ progenitors were continuously exposed to multiple concentrations of DCR-2 with equal concentrations of a secondary goat anti mouse antibody conjugated to PBD dimer. As a control, only the secondary PBD dimer conjugated antibody was used as above.
(§1) CB cells, plated at 2×10^4 cells/well in semi-solid methylcellulose medium (MethoCult Classic, Stemcell Technologies) in a 24 well plate (Corning, N.Y., USA), were cultured at 37° C. in 5% CO2 for 14 days when colony forming units (CFU) were scored. DCR-2-PBD or isotype-PBD was added to each well for continuous exposure. Three CB samples were tested with duplicate wells performed in each experiment.

Another assay has as its system primary AML. As to the kind of experiment: Colony forming unit assay, primary AML samples. The class given is cell-based, human. As for the experimental part: as §1
Two primary AML samples were tested: CRGH1 with low CD300f expression (MFI ratio of 2.6) and CRGH9 with a high CD300f expression (MFI 109.9) (FIG. 9).

The subject of a further assay is dendritic cells. As to the kind of experiment: Activation marker expression on dendritic cells after LPS. The class given is cell-based, human. The settings on record: HLA-DR, CD11c, CD80, CD83; 200 pmol. As for the experimental part: The activity of DCR-2PBD on the upregulation of activation markers on DC was measured by incubating whole PBMC with DCR-2PBD or no antibody for […] before washing, followed by 12 hours of LPS stimulation. Control DC were not exposed to DCR-2PBD or LPS. Myeloid DC were gated out by excluding dead cells, Lin^+(CD3, CD20, CD19, CD56, CD14), then gating on HLA-DR^+ and CD11c^+ cells. The activation markers CD80 and CD83 were assessed via flow cytometry. The changes on activation were determined by comparing activated DC incubated with or without DCR-2PBD compared to inactivated DC.
PBMC were incubated in complete RPMI media with or without DCR-2-PBD (200 pmol). After 12 hours, washed cells were incubated for a further 12 hours with or without LPS then phenotyped for the expression of activation markers on DC populations. MoDC were derived from CD14+ monocytes as described previously (Fromm et al. J Leukoc Biol. 2020; 107(2):323-339). DCR-2-PBD or isotype-PBD (200 pmol) were added for 72 hours prior to enumeration of live cells by flow cytometry.

The subject of the next assay is HL-60 cells. In words: HL-60 leukemic xenograft model in NSG mice. It is filed as in vivo, mouse. As for the experimental part:
For the HL-60 leukemic model, NSG mice were irradiated with 200cGy 24 hours prior to intravenous administration of 5×10^6 HL-60 cells. On day 7, mice were injected with DCR-2-PBD, isotype-PBD or PBS and monitored for disease progression and survival. Mice were euthanised when their clinical score was ≥4 or on d70.
On day 7, mice received a single injection of either PBS, or 300 μg/kg of CMRF-81PBD or DCR-2PBD, and their survival monitored.

Assay [2] deals with human HSPC and myeloid cells. As to the kind of experiment: Humanised (CD34+ engrafted) NSG mouse model. It is filed as in vivo. The following applies: single dose 300 ug/kg, day 7. As for the experimental part: The humanised mouse model used frozen CD34^+ cells (>95% purity) isolated by positive selection (Miltenyi 130-046-702) according to the manufacturer's instructions from two pooled CB samples. Each NSG mouse was injected with 100,000 CD34+ cells 4 hours after receiving a 150cGy irradiation dose. Engraftment as determined by % human CD45+ cells in venous blood was assessed at 12 weeks. Mice were assigned to treatment groups to have similar means of human CD45+ percentage in the PB (10.16% DCR-2-PBD cohort and 10.74% isotype-PBD cohort). Mice were then injected with 300 ug/kg of DCR-2-PBD or isotype-PBD. Mice were euthanised on day 7 and human CD45+ cells from BM (bilateral femurs and tibias) and 300 μl blood were enumerated and phenotyped by flow cytometry.

B1: DCR-2PBD: anti-CD300f mAb DCR-2 conjugated to pyrrolobenzodiazepine dimer via Cathepsin B-cleavable linker MA-PEG4-VA-PBD; drug to antibody ratio 3.3 (conjugate)
VH: MESGGGLVQPGGPLKLSCAASGFGFSGSWMSWVRQAPGKGLEWIGQINPDSSTINYTPSLKDKFIISRDNAKNTLYLQINKVRSEDTALYYCARRGFFEGYSAWFAYW
VL: ILMTQTPKFLLVSAGDRVTITCKASQSVSNDVAWYQQKPGQSPSLLIYYASNRNTGVPDRFTGSGYETDFTFTISTVQAEDLAVYFCQQDYTSPWTFGGG
As a reminder, the IC50 is the concentration at which inhibition is half-maximal. A higher IC50 goes with weaker potency. The molecule B1 came in with an IC50 in the assay with HEL of 544 pM. Moreover, in assay [1] (7.84 pM (p=0.0033)), the “reduction in total CFUs” value was “Significant reductions”. The “inhibition of all major CFU subtypes” value in assay [1] (32.9 pM) is given as “inhibited”. The “reduction in total CFUs” value in assay [1] (39.21 pM (p<0.0001)) is recorded as “Significant reductions”. For the same molecule, in assay [1] (196.1 pM), the “inhibition of all major CFU subtypes” value is “inhibited”. For the same molecule, the “reduction in total CFUs” value in assay [1] (196.1 pM (p<0.0001)) is given as “Significant reductions”. Further, in the assay with primary AML (CRGH1 (low CD300f expression), 196.1 pM), the “toxicity against primary AML CFU” value was “Significant toxicity”. The “toxicity against primary AML CFU” value in the assay with primary AML (CRGH9 (high CD300f expression), all dose levels (P<0.001)) was “Significant toxicity”. Also, in the assay with dendritic cells, the “up-regulation of activation markers on dendritic cells after LPS” value is reported as “does not prevent up-regulation of activation markers”. The “human cells in mice surviving until day 70” value in the assay on HL-60 cells (300 ug/kg) is “No human cells could be detected”. Moreover, the “animals surviving to the experiment endpoint” value in the assay with HL-60 cells (300 ug/kg, endpoint day 70) is on record as “Six of 8”. Also, in the assay on HL-60 cells (single injection 300 ug/kg on day 7 (p=0.0058)), the “survival compared to isotype-PBD” value was “significantly increased survival”. In addition, in assay [2], the “CD34+ cells as percentage of total human CD45+ cells” value was determined as 3.09%, the “CD34+CD38-CD90+ cells as percentage of total human CD45+ cells” value came to 0.16%, the “lymphocytes in the peripheral blood” value was 208.5 cells/μl and the “mean CD34+CD38-CD90+ cell count in BM” value is on record as 0.05×10^4. Besides, in assay [2], the “myeloid cells in the peripheral blood” value was 0.31 cells/μl.
